Data as given in article PMC8639819.

Columns and labels:
Western blot = settings: glycan lost; control: E14 cells
[1] = immunofluorescence confocal microscopy; settings: glycan lost; control: E14 cells
[2] = Western blot, stable 2TS22C cells; settings: glycan lost; control: WT FLAG-Sox2
[3] = 3D z-stack immunofluorescence, 2TS22C cells; settings: glycan lost; control: WT FLAG-Sox2

Sox2: T258A, sequence (chain, as listed by the source T258A): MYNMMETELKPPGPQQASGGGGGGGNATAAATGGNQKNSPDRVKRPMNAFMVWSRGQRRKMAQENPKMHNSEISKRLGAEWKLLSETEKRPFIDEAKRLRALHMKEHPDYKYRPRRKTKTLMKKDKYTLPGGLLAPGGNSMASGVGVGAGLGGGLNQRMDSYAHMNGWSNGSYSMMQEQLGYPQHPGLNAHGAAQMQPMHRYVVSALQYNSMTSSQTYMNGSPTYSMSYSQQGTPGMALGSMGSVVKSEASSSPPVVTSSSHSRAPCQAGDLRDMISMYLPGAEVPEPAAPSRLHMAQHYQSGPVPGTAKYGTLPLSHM
Sox2: E14-Sox2TA/WT, sequence (chain, as listed by the source): as the sequence (chain, as listed by the source T258A) above
Sox2: S248A, sequence (chain, as listed by the source S248A): as the sequence (chain, as listed by the source T258A) above
Sox2: S248A/T258A, sequence (chain, as listed by the source S248A T258A): as the sequence (chain, as listed by the source T258A) above

Substance | expression_or_secretion (Western blot) | localisation_or_trafficking [1] | expression_or_secretion [2] | localisation_or_trafficking [3]
Sox2: E14-Sox2TA/WT | no change | no change | – | –
Sox2: S248A | – | – | no change | –
Sox2: S248A/T258A | – | – | no change | –
Sox2: T258A | – | – | no change | no change
